This note sets out measurements from article PMC10353856.

As a reminder, the Kd is the concentration at which binding is half-saturated.

Series [1] addresses T1, PRC2 5-mer MT (RNA-binding mutant EZH2) (UniProt Q15910;Q15022;O75530;Q09028;Q6ZN18 1-746;1-739;1-441;1-425;1-517, F32A;R34A;D36A;K39A;P489N;R490A;K491A;K492I;K493R;R494S). As to the kind of experiment: EMSA.
Series [2] deals with PRC2 5-mer WT (EZH2-SUZ12-EED-RBBP4-AEBP2) (UniProt Q15910;Q15022;O75530;Q09028;Q6ZN18 1-746;1-739;1-441;1-425;1-517). Nature of the series: EMSA.
The target of series [3] is PRC2 4-mer MT (RNA-binding mutant EZH2) (UniProt Q15910;Q15022;O75530;Q09028 1-746;1-739;1-441;1-425, F32A;R34A;D36A;K39A;P489N;R490A;K491A;K492I;K493R;R494S). Nature of the series: fluorescence anisotropy. For orientation: Polarisation of emitted light reports the rotation of a fluorescent probe.
Series [4] addresses T1, PRC2 5-mer MT (RNA-binding mutant EZH2). Nature of the series: fluorescence anisotropy.

PRC2 4-mer MT (RNA-binding mutant EZH2), sequence (Q15910 whole entry F32A/R34A/D36A/K39A/P489N/R490A/K491A/K492I/K493R/R494S, chain 1 of 4): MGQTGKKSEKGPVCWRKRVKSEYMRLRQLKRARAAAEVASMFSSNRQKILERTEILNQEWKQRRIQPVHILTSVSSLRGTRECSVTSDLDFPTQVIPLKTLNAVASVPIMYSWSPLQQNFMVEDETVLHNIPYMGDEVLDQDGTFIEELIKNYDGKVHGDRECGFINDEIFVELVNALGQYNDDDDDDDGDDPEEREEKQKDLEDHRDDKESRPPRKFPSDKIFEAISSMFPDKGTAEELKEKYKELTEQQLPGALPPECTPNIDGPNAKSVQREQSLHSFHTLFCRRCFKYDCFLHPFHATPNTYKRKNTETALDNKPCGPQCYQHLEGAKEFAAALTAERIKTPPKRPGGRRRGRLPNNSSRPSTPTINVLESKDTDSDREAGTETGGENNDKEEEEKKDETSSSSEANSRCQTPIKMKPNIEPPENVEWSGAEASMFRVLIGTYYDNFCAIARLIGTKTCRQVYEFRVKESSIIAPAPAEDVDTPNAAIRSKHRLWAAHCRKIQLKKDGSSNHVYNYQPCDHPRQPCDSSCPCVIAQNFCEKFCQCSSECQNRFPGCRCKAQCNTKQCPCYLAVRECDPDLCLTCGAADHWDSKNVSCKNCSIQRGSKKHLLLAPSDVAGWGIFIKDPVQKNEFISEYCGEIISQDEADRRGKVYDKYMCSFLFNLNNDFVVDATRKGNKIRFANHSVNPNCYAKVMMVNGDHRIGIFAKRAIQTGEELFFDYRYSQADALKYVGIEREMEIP
PRC2 4-mer MT (RNA-binding mutant EZH2), sequence (Q15022 whole entry, stated change not applied, chain 2 of 4): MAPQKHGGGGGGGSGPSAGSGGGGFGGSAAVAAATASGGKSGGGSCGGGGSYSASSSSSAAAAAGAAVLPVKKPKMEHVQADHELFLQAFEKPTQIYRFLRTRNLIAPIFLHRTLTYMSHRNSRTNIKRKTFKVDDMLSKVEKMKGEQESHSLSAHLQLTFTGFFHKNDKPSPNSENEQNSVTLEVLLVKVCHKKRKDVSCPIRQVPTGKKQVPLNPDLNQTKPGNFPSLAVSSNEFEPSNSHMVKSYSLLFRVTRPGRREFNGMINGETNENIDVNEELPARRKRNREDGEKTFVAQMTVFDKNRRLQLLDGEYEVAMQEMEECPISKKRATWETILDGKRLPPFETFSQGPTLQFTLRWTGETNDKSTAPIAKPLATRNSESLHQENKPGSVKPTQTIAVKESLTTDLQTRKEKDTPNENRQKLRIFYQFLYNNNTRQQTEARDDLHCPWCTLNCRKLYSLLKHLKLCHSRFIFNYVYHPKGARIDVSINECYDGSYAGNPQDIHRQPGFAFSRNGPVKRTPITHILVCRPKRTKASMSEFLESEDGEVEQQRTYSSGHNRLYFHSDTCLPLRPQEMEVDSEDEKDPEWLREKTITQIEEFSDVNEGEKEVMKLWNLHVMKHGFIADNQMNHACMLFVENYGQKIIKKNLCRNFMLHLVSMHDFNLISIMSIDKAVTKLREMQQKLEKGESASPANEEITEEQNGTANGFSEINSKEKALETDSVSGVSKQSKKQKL
PRC2 4-mer MT (RNA-binding mutant EZH2), sequence (O75530 whole entry, stated change not applied, chain 3 of 4): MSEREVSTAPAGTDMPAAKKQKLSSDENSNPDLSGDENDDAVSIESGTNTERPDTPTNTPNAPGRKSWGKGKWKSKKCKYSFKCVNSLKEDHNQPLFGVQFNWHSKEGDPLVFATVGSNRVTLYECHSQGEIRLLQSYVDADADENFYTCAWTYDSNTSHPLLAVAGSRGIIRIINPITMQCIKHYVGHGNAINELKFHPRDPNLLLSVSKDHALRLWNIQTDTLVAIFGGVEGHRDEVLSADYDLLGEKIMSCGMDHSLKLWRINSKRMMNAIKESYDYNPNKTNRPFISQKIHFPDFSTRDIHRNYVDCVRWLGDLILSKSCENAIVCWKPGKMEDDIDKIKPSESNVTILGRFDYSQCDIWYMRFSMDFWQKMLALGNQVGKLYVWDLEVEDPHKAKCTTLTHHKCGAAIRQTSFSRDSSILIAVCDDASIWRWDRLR
PRC2 4-mer MT (RNA-binding mutant EZH2), sequence (Q09028 whole entry, stated change not applied, chain 4 of 4): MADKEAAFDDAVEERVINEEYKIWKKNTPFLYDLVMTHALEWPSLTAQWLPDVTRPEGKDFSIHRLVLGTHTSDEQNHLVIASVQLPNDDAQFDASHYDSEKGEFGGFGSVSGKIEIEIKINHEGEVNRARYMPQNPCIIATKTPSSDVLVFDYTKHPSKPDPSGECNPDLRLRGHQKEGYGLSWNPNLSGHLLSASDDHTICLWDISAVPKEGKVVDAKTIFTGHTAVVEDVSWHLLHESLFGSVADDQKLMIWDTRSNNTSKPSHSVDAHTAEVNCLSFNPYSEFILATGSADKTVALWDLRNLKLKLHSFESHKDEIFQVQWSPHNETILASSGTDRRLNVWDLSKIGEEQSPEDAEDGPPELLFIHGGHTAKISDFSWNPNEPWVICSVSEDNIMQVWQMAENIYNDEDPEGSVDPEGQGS

For the molecule GGAAGGAAGGAAGGAAGGAAGGAAGGAAGGAAGGAAGGAA (structured_RNA) [(GGAA)10 G4 RNA 40-mer], the Kd is 12 nM in series [1] and 2 nM in series [2].
Turning to GGAAGGAAGGAAGGAAGGAAGGAAGGAAGGAAGGAAGGAA (structured_RNA) [Alexa 488-(GGAA)10 RNA], the binding signal came out at 8 fold koff increase vs WT in series [3] and 30 fold koff increase vs WT in series [4].
